Assay [1] has as its target ACE2 receptor (UniProt Q9BYF1). The experiment in a line: ELISA; competitive ELISA of ACE2 binding; AH-adsorbed DCFHP incubated overnight at 50 °C, against a reference freshly adsorbed to AH. (In general: An ELISA detects its analyte on a solid surface through an enzyme-linked reagent.)
Assay [2] has as its target ACE2 receptor (UniProt Q9BYF1). In words: ELISA; competitive ELISA of ACE2 binding; DCFHP samples (in solution, or with AH and 0, 20 or 200 mM sodium phosphate) stored at 4 °C (3-21 days, 1 month, or up to 4 weeks) before the assay.
For assay [3], the target named is ACE2 receptor (UniProt Q9BYF1). The experiment in a line: ELISA; competitive ELISA of ACE2 binding; AH-adsorbed DCFHP incubated overnight at 40 °C, against a reference freshly adsorbed to AH.
The target in assay [4] is ACE2 receptor (UniProt Q9BYF1). In words: ELISA; competitive ELISA of ACE2 binding; DCFHP at 50 mcg/mL in 20 mM Tris, 150 mM NaCl, 5% Sucrose, pH 7.5, in solution or adsorbed to 1.5 mg/mL Alhydrogel (AH); time zero or freshly adsorbed; read against a DCFHP reference sample; who was immobilised is told only in the Supplemental methods.

Chain of UniProt Q9BYF1 (Q9BYF1 18-740 limits assumed): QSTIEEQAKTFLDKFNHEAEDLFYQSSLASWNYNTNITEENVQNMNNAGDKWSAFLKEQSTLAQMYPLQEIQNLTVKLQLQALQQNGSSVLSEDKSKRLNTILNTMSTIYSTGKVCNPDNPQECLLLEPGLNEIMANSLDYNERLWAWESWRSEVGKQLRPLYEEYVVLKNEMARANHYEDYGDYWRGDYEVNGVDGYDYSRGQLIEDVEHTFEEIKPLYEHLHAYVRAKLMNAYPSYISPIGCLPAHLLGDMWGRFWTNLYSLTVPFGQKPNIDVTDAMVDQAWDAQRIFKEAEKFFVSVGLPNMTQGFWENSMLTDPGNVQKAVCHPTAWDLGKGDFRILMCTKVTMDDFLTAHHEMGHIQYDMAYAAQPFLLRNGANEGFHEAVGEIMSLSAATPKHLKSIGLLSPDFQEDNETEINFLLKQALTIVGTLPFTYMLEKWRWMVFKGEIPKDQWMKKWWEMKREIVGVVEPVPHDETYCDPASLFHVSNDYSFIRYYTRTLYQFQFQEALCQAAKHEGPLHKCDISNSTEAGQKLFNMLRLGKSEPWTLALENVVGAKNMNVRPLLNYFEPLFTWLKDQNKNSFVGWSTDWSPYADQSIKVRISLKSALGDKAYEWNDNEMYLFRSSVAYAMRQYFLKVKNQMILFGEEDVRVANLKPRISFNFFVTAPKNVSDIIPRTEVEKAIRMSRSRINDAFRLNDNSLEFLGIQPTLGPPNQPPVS

Take “Delta-C70-Ferritin-HexaPro (DCFHP), SARS-CoV-2 spike ferritin nanoparticle vaccine antigen, produced in Expi293 cells”: in the assay with ACE2 receptor [1], the loss of ACE2 binding after overnight at 50 °C amounted to 80%. In the assay with ACE2 receptor [2], this substance showed a native antigen by ACE2 competitive ELISA after 1 month at 4 °C, AH with 0 mM phosphate of 80 µg; a native antigen by ACE2 competitive ELISA after 1 month at 4 °C, AH with 200 mM phosphate of 50 µg; a native antigen concentration by ACE2 competitive ELISA (target 50 mcg/mL), AH-adsorbed, stored at 4 °C for 3-21 days of 75 µg/mL. This substance registered a loss of ACE2 binding after overnight at 40 °C with ACE2 receptor [3] of 60%. The substance further registered a native antigen concentration by ACE2 competitive ELISA (target 50 mcg/mL), freshly adsorbed to AH, time zero with ACE2 receptor [4] of 48 µg/mL.

The values above are taken from paper PMC11181998.
